Source: publication PMC5109244
Values belong to the substance of their own block, whether it stands above or below them.

Experiments:
[1] = molecular target: chimeric DNGR-1:dectin-1 ECD (neck region of long mouse DNGR-1 fused to the CTLD of dectin-1) (mouse); assay: non-reducing SDS-PAGE and Western blot; supernatants of 293F cells with FLAG-tagged ECD proteins, Laemmli buffer without reducing agent, HRP-conjugated anti-FLAG detection
[2] = molecular target: full-length WT DNGR-1 (mouse, long isoform), transmembrane receptor (mouse); assay: reducing SDS-PAGE and Western blot; Phoenix cells expressing full-length DNGR-1 lysed in 1% SDS in 10 mM MES pH 6.1; reducing conditions; anti-DNGR-1 (clone 397) detection
[3] = molecular target: full-length WT DNGR-1 (mouse, long isoform), transmembrane receptor (mouse); assay: reducing SDS-PAGE and Western blot; Phoenix cells expressing full-length DNGR-1 lysed in 1% SDS in PBS; reducing conditions; anti-DNGR-1 (clone 397) detection; reduction-sensitive (type-1) dimers run as monomers
[4] = molecular target: full-length Δ4 DNGR-1 (mouse, long isoform; N81–T90 removed) (mouse); assay: reducing SDS-PAGE and Western blot; Phoenix cells expressing full-length DNGR-1 lysed in 1% SDS in 10 mM MES pH 6.1; reducing conditions; anti-DNGR-1 (clone 397) detection
[5] = molecular target: full-length Δ4 DNGR-1 (mouse, long isoform; N81–T90 removed) (mouse); assay: reducing SDS-PAGE and Western blot; Phoenix cells expressing full-length DNGR-1 lysed in 1% SDS in PBS; reducing conditions; anti-DNGR-1 (clone 397) detection; reduction-sensitive (type-1) dimers run as monomers
[6] = molecular target: long mouse DNGR-1 ECD (extracellular domain of the long isoform of mouse DNGR-1, wild type) (mouse); assay: reducing SDS-PAGE and Western blot; purified ECD diluted into buffers of low pH and low ionic strength (10 mM MES pH 6.1; 10 mM Tris; 36 buffers of pH 6.5–8.05 and 15–250 mM ionic strength); 100 mM DTT in Laemmli buffer; reduction-resistant (type-2) dimers
[7] = molecular target: long mouse DNGR-1 ECD (extracellular domain of the long isoform of mouse DNGR-1, wild type) (mouse); assay: non-reducing SDS-PAGE and Western blot; purified long mouse ECD in PBS or 10 mM MES pH 6.1, Laemmli buffer or 8 M urea, no reducing agent
[8] = molecular target: long mouse DNGR-1 ECD (extracellular domain of the long isoform of mouse DNGR-1, wild type) (mouse); assay: non-reducing SDS-PAGE and Western blot; supernatants of 293F cells with FLAG-tagged ECD proteins, Laemmli buffer without reducing agent, HRP-conjugated anti-FLAG detection
[9] = molecular target: Δ3A mutant long mouse DNGR-1 ECD (all residues of block 3, L72–L82, replaced by alanines) (mouse); assay: as above
[10] = molecular target: Δ4 mutant long mouse DNGR-1 ECD (N81–T90 removed) (mouse); assay: reducing SDS-PAGE and Western blot; supernatants with FLAG-tagged ECD proteins, neat or diluted into PBS (neutral conditions); reduced with DTT (100 mM) or β-ME in Laemmli buffer; anti-FLAG detection
[11] = molecular target: Δ4 mutant long mouse DNGR-1 ECD (N81–T90 removed) (mouse); assay: reducing SDS-PAGE and Western blot; supernatants with FLAG-tagged ECD proteins diluted into 10 mM MES pH 6.1; 100 mM DTT in Laemmli buffer; anti-FLAG detection; reduction-resistant (type-2) dimers
[12] = molecular target: Δ4A mutant long mouse DNGR-1 ECD (all residues of block 4, N81–T90, replaced by alanines) (mouse); assay: reducing SDS-PAGE and Western blot; supernatants with FLAG-tagged ECD proteins, neat or diluted into PBS (neutral conditions); reduced with DTT (100 mM) or β-ME in Laemmli buffer; anti-FLAG detection
[13] = molecular target: Δ4A mutant long mouse DNGR-1 ECD (all residues of block 4, N81–T90, replaced by alanines) (mouse); assay: non-reducing SDS-PAGE and Western blot; supernatants of 293F cells with FLAG-tagged ECD proteins, Laemmli buffer without reducing agent, HRP-conjugated anti-FLAG detection
[14] = molecular target: Δ6A mutant long mouse DNGR-1 ECD (all residues of block 6, Q95–S104, replaced by alanines) (mouse); assay: as above

Sequence of long mouse DNGR-1 ECD (extracellular domain of the long isoform of mouse DNGR-1, wild type) (domain or fragment) (Q8BRU4 113-235): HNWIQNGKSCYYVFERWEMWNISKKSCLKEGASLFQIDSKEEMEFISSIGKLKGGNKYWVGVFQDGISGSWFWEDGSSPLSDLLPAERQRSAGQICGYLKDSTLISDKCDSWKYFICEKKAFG
Sequence of full-length WT DNGR-1 (mouse, long isoform), transmembrane receptor (Q8BRU4 whole entry, canonical isoform): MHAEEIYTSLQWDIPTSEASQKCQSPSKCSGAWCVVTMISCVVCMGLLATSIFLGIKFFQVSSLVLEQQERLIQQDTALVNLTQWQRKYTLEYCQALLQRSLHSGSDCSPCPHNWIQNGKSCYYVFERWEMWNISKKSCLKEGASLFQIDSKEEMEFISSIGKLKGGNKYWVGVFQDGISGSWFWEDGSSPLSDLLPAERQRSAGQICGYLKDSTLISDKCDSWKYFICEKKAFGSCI

stoichiometry N [1]: 2
Substance: chimeric DNGR-1:dectin-1 ECD (neck region of long mouse DNGR-1 fused to the CTLD of dectin-1)

stoichiometry N [2]: 2 | stoichiometry N [3]: 2
Substance: full-length WT DNGR-1 (mouse, long isoform), transmembrane receptor

stoichiometry N [4]: 2 | stoichiometry N [5]: 2
Substance: full-length Δ4 DNGR-1 (mouse, long isoform; N81–T90 removed) (receptor)

stoichiometry N [6]: 2 | stoichiometry N [7]: 2 | stoichiometry N [8]: 2
Substance: long mouse DNGR-1 ECD (extracellular domain of the long isoform of mouse DNGR-1, wild type) (domain or fragment)

stoichiometry N [9]: 2
Substance: Δ3A mutant long mouse DNGR-1 ECD (all residues of block 3, L72–L82, replaced by alanines) (domain or fragment)

stoichiometry N [10]: 2 | stoichiometry N [11]: 2
Substance: Δ4 mutant long mouse DNGR-1 ECD (N81–T90 removed) (domain or fragment)

stoichiometry N [12]: 2 | stoichiometry N [13]: 2
Substance: Δ4A mutant long mouse DNGR-1 ECD (all residues of block 4, N81–T90, replaced by alanines) (domain or fragment)

stoichiometry N [14]: 2
Substance: Δ6A mutant long mouse DNGR-1 ECD (all residues of block 6, Q95–S104, replaced by alanines) (domain or fragment)
